The nature of this data set: self-splicing fitness, log relative to wild type (ln ratio); higher = more splicing; Tetrahymena group I intron in knt gene, E. coli kanamycin selection, DiMSum; sequences stand for … in CUCUCU…GGAGGGAAAAGUUAUCAGGCAUGCACCUGGUAGCUAGUCUUUAAACCAAUAGAUUGCAUCGGUUUAAAAGGCAAGACCGUCAAAUUGCGGGAAAGGGGUCAACAGCCGUUCAGUACCAAGUCUCAGGGGAAACUUUGAGAUGGCCUUGCAAAGGGUAUGGUAAUAAGCUGACGGACAUGGUCCUAACCACGCAGCCAAGUCCUAAGUCAACAGAUCUUCUGUUGAUAUGGAUGCAGUUCACAGACUAAAUGUCGGUCGGGGAAGAUGUAUUCUUCUCAUAAGAUAUAGUCGGACCUCUCCUUAAUGGGAGCUAGCGGAUGAAGUGAUGCAACACUGGAGCCGCUGGGAACUAAUUUGUAUGCGAAAGUAUAUUGAUUAGUUUUGGAGUACUCGUGGUCG
The method in brief: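 Six replicate transformations of E. coli BL21(DE3) with a pET-22b(+) library were grown overnight at 37°C or 30°C. The library randomised all eight P1ex-region intron nucleotides, the intron lying in the knt kanamycin-resistance gene, and plates were LB agar with or without 25 μg/mL kanamycin plus 100 μg/mL carbenicillin, 50 μM IPTG and 0.2% rhamnose. Pooled colonies were amplicon-sequenced on an Illumina HiSeq 2500, and fitness is the DiMSum error-weighted combination of wild-type-normalised replicate fold changes, kanamycin versus none.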

We go through 62 sequences from the supplement of paper PMC7877785.

± gives the uncertainty stated by the source.

Turning to AUGGAGCAAUAUUACGACAU, the “self-splicing fitness (ln)” value reads like this: (30 °C) -1.36 ± 0.017; (37 °C) -0.784 ± 0.035.
Consider AUGGAGCAAUAUUACGACGG, for which the “self-splicing fitness (ln)” value (37 °C) amounted to 1.8 ± 0.38.
For the sequence AUGGAGCAAUAUUACGACUU, the “self-splicing fitness (ln)” value (30 °C) was -1.73 ± 0.1 and the “self-splicing fitness (ln)” value (37 °C) is -1.08 ± 0.13.
Regarding AUGGAGCAAUAUUACGAGCA, the “self-splicing fitness (ln)” value is -2.33 ± 0.46 (30 °C) and -1.17 ± 0.49 (37 °C).
Consider AUGGAGCAAUAUUACGAGUU, for which the “self-splicing fitness (ln)” value is -4.04 ± 0.43 (30 °C) and -3.03 ± 0.22 (37 °C).
For AUGGAGCAAUAUUACGAUCG, the “self-splicing fitness (ln)” value (37 °C) was -1.1 ± 0.42.
On to AUGGAGCAAUAUUACGAUUA, for which the “self-splicing fitness (ln)” value (30 °C) was -1.13 ± 0.36.
Take AUGGAGCAAUAUUACGCACA: the “self-splicing fitness (ln)” value by setting is: (30 °C) -1.57 ± 0.16; (37 °C) -0.961 ± 0.21.
For the sequence AUGGAGCAAUAUUACGCAGC, the “self-splicing fitness (ln)” value by setting is: (30 °C) -2.14 ± 0.23; (37 °C) -2.54 ± 0.33.
For the sequence AUGGAGCAAUAUUACGCAUC, the “self-splicing fitness (ln)” value runs as follows: (30 °C) -3.74 ± 0.14; (37 °C) -3.29 ± 0.26.
Take AUGGAGCAAUAUUACGCCAG: the “self-splicing fitness (ln)” value (30 °C) is -2.26 ± 0.35.
For the sequence AUGGAGCAAUAUUACGCCAU, the “self-splicing fitness (ln)” value is, setting by setting: (30 °C) -4.27 ± 0.46; (37 °C) -2.17 ± 0.34.
Regarding AUGGAGCAAUAUUACGCUCA, the “self-splicing fitness (ln)” value (30 °C) was -1.46 ± 0.17 and the “self-splicing fitness (ln)” value (37 °C) was -1.17 ± 0.18.
Consider AUGGAGCAAUAUUACGCUCG, for which the “self-splicing fitness (ln)” value is, setting by setting: (30 °C) -1.58 ± 0.14; (37 °C) -0.952 ± 0.18.
Take AUGGAGCAAUAUUACGGAAC: under “37 °C”, the “self-splicing fitness (ln)” value was -1.21 ± 0.42.
Consider AUGGAGCAAUAUUACGGAAG, for which the “self-splicing fitness (ln)” value (30 °C) is -3.24 ± 0.38.
In the case of AUGGAGCAAUAUUACGGACG, the “self-splicing fitness (ln)” value runs as follows: (30 °C) -2.44 ± 0.32; (37 °C) -0.988 ± 0.3.
Turning to AUGGAGCAAUAUUACGGAGA, the “self-splicing fitness (ln)” value is -2.93 ± 0.44 (30 °C) and -1.21 ± 0.32 (37 °C).
For AUGGAGCAAUAUUACGGGUU, the “self-splicing fitness (ln)” value reads like this: (30 °C) -2.3 ± 0.43; (37 °C) -3.16 ± 0.4.
With AUGGAGCAAUAUUACGGUUG, the “self-splicing fitness (ln)” value is -4.12 ± 0.3 (30 °C) and -2.21 ± 0.23 (37 °C).
Turning to AUGGAGCAAUAUUACGUCAA, the “self-splicing fitness (ln)” value runs as follows: (30 °C) -1.77 ± 0.35; (37 °C) -0.821 ± 0.36.
The corresponding values for AUGGAGCAAUAUUACGUUUA are -2.59 ± 0.28 and -1.83 ± 0.27.
Take AUGUAGCAAUAUUACGAACU: the “self-splicing fitness (ln)” value by setting is: (30 °C) -0.642 ± 0.12; (37 °C) 0.131 ± 0.15.
In the case of AUGUAGCAAUAUUACGAAGC, the “self-splicing fitness (ln)” value is -3.22 ± 0.37 (30 °C) and 0.239 ± 0.23 (37 °C).
In the case of AUGUAGCAAUAUUACGAAUU, the “self-splicing fitness (ln)” value runs as follows: (30 °C) -2 ± 0.12; (37 °C) -1.84 ± 0.16.
Take AUGUAGCAAUAUUACGAGAC: the “self-splicing fitness (ln)” value by setting is: (30 °C) -3.13 ± 0.31; (37 °C) -2.09 ± 0.2.
Taken in the same sequence, the figures for AUGUAGCAAUAUUACGAGCG were -1.23 ± 0.11 and -1.8 ± 0.14.
For the sequence AUGUAGCAAUAUUACGAUGA, the “self-splicing fitness (ln)” value is -0.624 ± 0.15 (30 °C) and -1.66 ± 0.15 (37 °C).
The corresponding values for AUGUAGCAAUAUUACGCAAA are -2.34 ± 0.33 and -1.07 ± 0.2.
In the case of AUGUAGCAAUAUUACGCAAU, the “self-splicing fitness (ln)” value is, setting by setting: (30 °C) -1.49 ± 0.13; (37 °C) -1.01 ± 0.23.
In the case of AUGUAGCAAUAUUACGCACU, the “self-splicing fitness (ln)” value reads like this: (30 °C) -0.786 ± 0.099; (37 °C) 0.708 ± 0.14.
For AUGUAGCAAUAUUACGCAUG, the “self-splicing fitness (ln)” value is, setting by setting: (30 °C) -1.38 ± 0.095; (37 °C) -0.413 ± 0.12.
AUGUAGCAAUAUUACGCCGA: the “self-splicing fitness (ln)” value is, setting by setting: (30 °C) -2.44 ± 0.2; (37 °C) -0.724 ± 0.16.
As to AUGUAGCAAUAUUACGCCUU, the “self-splicing fitness (ln)” value was -0.114 ± 0.1 (30 °C) and -0.413 ± 0.13 (37 °C).
As for AUGUAGCAAUAUUACGCGUC, the “self-splicing fitness (ln)” value by setting is: (30 °C) -2.6 ± 0.22; (37 °C) -2.32 ± 0.3.
Regarding AUGUAGCAAUAUUACGCUAC, the “self-splicing fitness (ln)” value reads like this: (30 °C) -3.14 ± 0.34; (37 °C) -2.59 ± 0.34.
Regarding AUGUAGCAAUAUUACGCUAG, the “self-splicing fitness (ln)” value is -1.61 ± 0.21 (30 °C) and -0.5 ± 0.22 (37 °C).
In the case of AUGUAGCAAUAUUACGCUAU, the “self-splicing fitness (ln)” value reads like this: (30 °C) -3.81 ± 0.23; (37 °C) -2.6 ± 0.23.
For AUGUAGCAAUAUUACGGAUU, the “self-splicing fitness (ln)” value by setting is: (30 °C) -1.57 ± 0.092; (37 °C) -0.598 ± 0.091.
As for AUGUAGCAAUAUUACGGCCC, the “self-splicing fitness (ln)” value is -0.72 ± 0.34 (30 °C) and -0.359 ± 0.25 (37 °C).
For AUGUAGCAAUAUUACGGGCA, the “self-splicing fitness (ln)” value is, setting by setting: (30 °C) -0.222 ± 0.11; (37 °C) 0.141 ± 0.1.
Regarding AUGUAGCAAUAUUACGGUCG, the “self-splicing fitness (ln)” value runs as follows: (30 °C) -1.44 ± 0.12; (37 °C) -1.59 ± 0.17.
As to AUGUAGCAAUAUUACGUAUG, the “self-splicing fitness (ln)” value reads like this: (30 °C) -3.84 ± 0.29; (37 °C) -3.16 ± 0.28.
As to AUUAAGCAAUAUUACGAACG, the “self-splicing fitness (ln)” value was -1.59 ± 0.18 (30 °C) and -0.243 ± 0.15 (37 °C).
On to AUUAAGCAAUAUUACGAAGG, for which the “self-splicing fitness (ln)” value (30 °C) is -3.82 ± 0.4 and the “self-splicing fitness (ln)” value (37 °C) is -2.5 ± 0.44.
For the sequence AUUAAGCAAUAUUACGAAGU, the “self-splicing fitness (ln)” value is -2.77 ± 0.22 (30 °C) and -0.565 ± 0.21 (37 °C).
Taken in the same sequence, the figures for AUUAAGCAAUAUUACGACAU were 0.191 ± 0.012 and 0.193 ± 0.032.
AUUAAGCAAUAUUACGACCG: the “self-splicing fitness (ln)” value is, setting by setting: (30 °C) -1.51 ± 0.1; (37 °C) -0.619 ± 0.16.
Take AUUAAGCAAUAUUACGAGAG: the “self-splicing fitness (ln)” value (30 °C) was -2.61 ± 0.24 and the “self-splicing fitness (ln)” value (37 °C) is -1.83 ± 0.27.
Consider AUUAAGCAAUAUUACGAGUG, for which the “self-splicing fitness (ln)” value was -2.42 ± 0.1 (30 °C) and -2.37 ± 0.14 (37 °C).
Turning to AUUAAGCAAUAUUACGAUGC, the “self-splicing fitness (ln)” value is -2.09 ± 0.15 (30 °C) and -1.86 ± 0.17 (37 °C).
As for AUUAAGCAAUAUUACGCACU, the “self-splicing fitness (ln)” value (30 °C) was -0.21 ± 0.13 and the “self-splicing fitness (ln)” value (37 °C) was -0.414 ± 0.13.
Taken in the same sequence, the figures for AUUAAGCAAUAUUACGCAUU were -2.35 ± 0.14 and -0.664 ± 0.13.
As for AUUAAGCAAUAUUACGCUAC, the “self-splicing fitness (ln)” value runs as follows: (30 °C) -2.45 ± 0.43; (37 °C) -3.4 ± 0.35.
In the case of AUUAAGCAAUAUUACGCUCA, the “self-splicing fitness (ln)” value is, setting by setting: (30 °C) -0.292 ± 0.068; (37 °C) -0.258 ± 0.091.
The corresponding values for AUUAAGCAAUAUUACGGAUU are -2.03 ± 0.12 and -0.791 ± 0.15.
For AUUAAGCAAUAUUACGGCGG, the “self-splicing fitness (ln)” value (30 °C) is -1.18 ± 0.16 and the “self-splicing fitness (ln)” value (37 °C) was -0.145 ± 0.18.
Taken in the same sequence, the figures for AUUAAGCAAUAUUACGGGCU were -1.31 ± 0.13 and -1.47 ± 0.17.
Take AUUAAGCAAUAUUACGGGUC: the “self-splicing fitness (ln)” value (30 °C) is -2.81 ± 0.21 and the “self-splicing fitness (ln)” value (37 °C) was -3.49 ± 0.37.
As to AUUAAGCAAUAUUACGGUCG, the “self-splicing fitness (ln)” value runs as follows: (30 °C) -1.59 ± 0.11; (37 °C) -0.942 ± 0.12.
Consider AUUAAGCAAUAUUACGUAAU, for which the “self-splicing fitness (ln)” value is -1.66 ± 0.11 (30 °C) and -0.745 ± 0.14 (37 °C).
Taken in the same sequence, the figures for AUUAAGCAAUAUUACGUAUA were -1.48 ± 0.16 and -1.35 ± 0.14.
